The Immune Epitope Database (IEDB)

Target: HLA-A*01:01
Test: IEDB peptide-MHC binding, purified MHC/direct/fluorescence; filed as Kd, often an IC50 or EC50 that approximates it; ≥ and ≤ were set here for values at or beyond the usual limits of such assays
Conditions: source organism: West Nile virus

Compared with ITYTDVLRY, VVEKQSGLY is 2-fold higher in Kd: 3 nM for the first, 6 nM for the second.

QTDNQLAVF and MTKEEFTRY are within 1.5-fold of each other in Kd: 168 nM for the first, 246 nM for the second.

Target: HLA-A*02:01
Test: as above
Conditions: source organism: West Nile virus

ILLWEIPDV and SLFGGMSWI cannot be ordered by Kd: no more than 1 nM for the first, no more than 1 nM for the second.

Compared with GMSWITQGL, VLCPYMPKV is higher in Kd: no more than 1 nM for the first, 21 nM for the second. The first binds more tightly here.

FLAVGGVLL and RLARAIIEL are the same in Kd: 3 nM for the first, 3 nM for the second.

For TLARGFPFV, the Kd was 3 nM.

Target: HLA-A*03:01
Test: as above
Conditions: source organism: West Nile virus

Compared with VLSLIGLKR, GLYKSAPRR is 13-fold lower in Kd: 481 nM for the first, 37 nM for the second.

Compared with LTYRHKVVK, VLRKRWTAK is 2.2-fold lower in Kd: 94 nM for the first, 43 nM for the second. The second binds more tightly here.

Going from VLWDTPSPK to MVGVGSLVK, the Kd rises from 117 nM to 380 nM (3.2-fold).

Target: HLA-A*24:03
Test: as above
Conditions: source organism: West Nile virus

First: WMILRAISF
Second: EYVGKTVWF
The Kd of the first is 4.6-fold higher: 120 nM for the first, 26 nM for the second. The second binds more tightly here.

WFMWLGARF and WYDWQQVPF are within 1.5-fold of each other in Kd: 10 nM for the first, 7 nM for the second.

Compared with RYLVKTESW, GYISTRVEL is 11-fold higher in Kd: 4 nM for the first, 45 nM for the second. The first binds more tightly here.

LYAVTTAVL and SYHDRRWCF are within 1.5-fold of each other in Kd: 8 nM for the first, 9 nM for the second.

SYTLKLGEY and RFVLALLAF are within 1.5-fold of each other in Kd: 143 nM for the first, 176 nM for the second.

Sequence TYGVCAKAF has a Kd of 13 nM.

Target: HLA-A*26:01
Test: as above
Conditions: source organism: West Nile virus

First: HTTKGAALM
Second: EVMTAVGLM
The Kd of the first is 4.6-fold higher: 23 nM for the first, 5 nM for the second. The second binds more tightly here.

First: ETTNWLWAF
Second: FCIKVLCPY
The Kd of the first is 160-fold lower: 2 nM for the first, 314 nM for the second.

DTITNVTTM and ETTNWLWTF are within 1.5-fold of each other in Kd: 4 nM for the first, 5 nM for the second.

In the case of MTRGLLGSY, the Kd is reported as 8 nM.

Target: HLA-B*07:02
Test: as above
Conditions: source organism: West Nile virus

First: HSRRSRRSL
Second: RPAADGKTV
The Kd of the first is 2.1-fold lower: 47 nM for the first, 97 nM for the second.

First: RVIDSRKSV
Second: RPAVGGKTV
The Kd of the first is 2.7-fold higher: 97 nM for the first, 36 nM for the second.

GGRAHRMAL and QPAFMVASF are within 1.5-fold of each other in Kd: 63 nM for the first, 71 nM for the second.

IPTAAGKNL and RVYSDHQAL are within 1.5-fold of each other in Kd: 150 nM for the first, 205 nM for the second.

Target: HLA-B*08:01
Test: as above
Conditions: source organism: West Nile virus

Compared with ILRNPGYAL, KIRNRIERL is 1.9-fold lower in Kd: 483 nM for the first, 254 nM for the second. The second binds more tightly here.

FTRYRKEAI and MLRKKQITV are within 1.5-fold of each other in Kd: 39 nM for the first, 35 nM for the second.

Target: HLA-B*15:01
Test: as above
Conditions: source organism: West Nile virus

Compared with KVAAAGVSY, TVSPSAPTY is 2.4-fold lower in Kd: 165 nM for the first, 68 nM for the second.

LMNDPGAPW and GVIMPNGSY are within 1.5-fold of each other in Kd: 40 nM for the first, 29 nM for the second.

Going from AMFEEQNQW to YQPEREKVY, the Kd rises from 17 nM to 80 nM (4.7-fold).

LLLLVAPAY and VIQLNRKSY are within 1.5-fold of each other in Kd: 87 nM for the first, 105 nM for the second.

For LLVAPAYSF, the Kd was 137 nM.

Target: HLA-B*27:05
Test: as above
Conditions: source organism: West Nile virus

First: LRWLVERRF
Second: RRYGGGLVR
The Kd of the first is 1.6-fold higher: 98 nM for the first, 62 nM for the second.

First: RRSRRSLTV
Second: RRWCFDGPR
The Kd of the first is 35-fold higher: 385 nM for the first, 11 nM for the second.

RRLAATTEK and RRFLEPVGK are within 1.5-fold of each other in Kd: 37 nM for the first, 50 nM for the second.

GRLVTVNPF and GRMEKKTWK are within 1.5-fold of each other in Kd: 75 nM for the first, 103 nM for the second.

Target: HLA-B*39:01
Test: as above
Conditions: source organism: West Nile virus

Compared with YTMDGEYRL, FVDVGVSAL is 3-fold lower in Kd: 154 nM for the first, 52 nM for the second. The second binds more tightly here.

TRAVGKPLL and GRGPIRFVL are within 1.5-fold of each other in Kd: 141 nM for the first, 162 nM for the second.

Target: HLA-B*40:01
Test: as above
Conditions: source organism: West Nile virus

First: REHSGNEIV
Second: AEVEEHRTV
The Kd of the first is lower: no more than 1 nM for the first, 130 nM for the second. The first binds more tightly here.

First: NEAKVLELL
Second: VEGLGLQKL
The Kd of the first is 8.2-fold lower: 28 nM for the first, 230 nM for the second.

Compared with REDIWCGSL, NEVEVITKL is 11-fold higher in Kd: 7 nM for the first, 80 nM for the second. The first binds more tightly here.

Going from RESFGVESF to REWFMDLNL, the Kd rises from no more than 1 nM to 9 nM. The first binds more tightly here.

Compared with WEALDTMYV, QEGALHQAL is 1.9-fold lower in Kd: 27 nM for the first, 14 nM for the second.

KENGVDLSV was tested, and the Kd was 3 nM.

Target: HLA-B*58:01
Test: as above
Conditions: source organism: West Nile virus

Compared with LAVSAYTPW, VSRLEHQMW is 5.1-fold higher in Kd: 11 nM for the first, 56 nM for the second.

Going from KSFLVHREW to GSRAIWFMW, the Kd rises from 11 nM to 87 nM (7.9-fold). The first binds more tightly here.

Going from RVLEMVEDW to ISGKSTDMW, the Kd rises from 4 nM to 91 nM (23-fold). The first binds more tightly here.

Going from KSYAQMWLL to RAWNSGYEW, the Kd rises from 8 nM to 16 nM (2-fold). The first binds more tightly here.

LAALGDTAW was tested, and the Kd was 66 nM.
